According to PMC8784147:

Target: HBV core protein dimer (Cp149 dimer, 34 kDa) (hepatitis B virus)
Assay: multi-cycle resistive-pulse sensing

Question: “HBV core protein dimer (Cp149 dimer, 34 kDa) (domain or fragment)” was tested. Which stoichiometry N did it give?
Answer: 120 dimers
